Test results from US20110262922, “APTAMER SANDWICH ASSAYS” (POSCO, published 2011).

Experiments:
Insulin receptor (IR) [1] = target: T1, Insulin receptor (IR) (Homo sapiens, UniProt P06213-2;P06213-2 P06213-2:28-746,P06213-2:751-944); assay: filter; +/-0.78; same buffer, 5 mM MgCl2, 37 C; settings: tags: His-tagged; R&D Systems Cat# 1544-IR; chain copies: 2; label: 5'-32P
Method: (§1) Aptamers identified using the above SELEX process were amplified by PCR and cloned as described above. Up to fifty randomly picked plasmid clones were sequenced. To verify that cloned aptamers bind to IR or ERBB2, aptamers that had same sequence in the aptamer pool were tested for binding affinity. Briefly, aptamers were incubated with various concentrations of target His-tagged proteins and the target His-tagged proteins were captured on Talon bead. Radio labeled aptamers that were bound to target proteins were then detected by phosphoimager.
(§2) Specifically, Aptamer-protein equilibrium dissociation constants (Kd's) were determined by the nitrocellulose-filter binding method as described by White et al. in Mol. Ther., 2001, 4(6), 567-73. For all binding assays, aptamers were dephosphorylated using alkaline phosphatase (New England Biolab) and labeled at the 5′-end using T4 polynucleotide kinase (New England Biolabs, Beverly, Mass.) and [γ³²P]ATP (Amersham Pharmacia Biotech, Piscataway, N.J.) as described by Fitzwater et al., in Methods Enzymol, 1996, 267, 275-301. […] The fraction of bound aptamer was quantified with a PhosphorImager (Fuji FLA-5100 Image Analyzer, Tokyo, Japan). […]

Insulin receptor (IR) [2] = target: T1, Insulin receptor (IR); assay: filter; +/-0.28; same buffer, 5 mM MgCl2, 37 C; settings: tags: His-tagged; R&D Systems Cat# 1544-IR; chain copies: 2; label: 5'-32P
Method: as §1, §2

ERBB2 (HER2) [3] = target: T2, ERBB2 (HER2) (UniProt P04626 P04626:23-652); assay: filter; +/-0.20; same buffer, 37 C; not competing with ERBB2-12; settings: tags: His-tagged; R&D Systems Cat# 1129-ER; label: 5'-32P
Insulin receptor (IR) [4] = target: T1, Insulin receptor (IR); assay: filter; +/-0.26; same buffer, 5 mM MgCl2, 37 C; settings: tags: His-tagged; R&D Systems Cat# 1544-IR; chain copies: 2; label: 5'-32P
Method: as §1, §2

ERBB2 (HER2) [5] = target: T2, ERBB2 (HER2); assay: filter; +/-0.12; 40 mM HEPES pH 7.5, 120 mM NaCl, 5 mM KCl, 5 mM MgCl2, 0.002% tween-20, 37 C; settings: tags: His-tagged; R&D Systems Cat# 1129-ER; label: 5'-32P
Method: as §1, §2

Insulin receptor (IR) [6] = target: T1, Insulin receptor (IR); assay: FP; placeholder; settings: tags: His-tagged; R&D Systems Cat# 1544-IR; chain copies: 2; label: 5'-32P
Insulin receptor (IR) [7] = target: T1, Insulin receptor (IR); assay: filter; +/-1.08; 40 mM HEPES pH 7.5, 120 mM NaCl, 5 mM KCl, 5 mM MgCl2, 0.002% tween-20, 37 C; not competing with IR-13; settings: tags: His-tagged; R&D Systems Cat# 1544-IR; chain copies: 2; label: 5'-32P
ERBB2 (HER2) [8] = target: T2, ERBB2 (HER2); assay: filter; +/-1.25; same buffer, 37 C; settings: tags: His-tagged; R&D Systems Cat# 1129-ER; label: 5'-32P
Method: as §1, §2

ERBB2 (HER2) [9] = target: T2, ERBB2 (HER2); assay: filter; +/-0.39; same buffer, 37 C; settings: tags: His-tagged; R&D Systems Cat# 1129-ER; label: 5'-32P
Method: as §1, §2

T1 sequence (P06213 other isoform, or with tags, fused parts or gaps, chain 1 of 2): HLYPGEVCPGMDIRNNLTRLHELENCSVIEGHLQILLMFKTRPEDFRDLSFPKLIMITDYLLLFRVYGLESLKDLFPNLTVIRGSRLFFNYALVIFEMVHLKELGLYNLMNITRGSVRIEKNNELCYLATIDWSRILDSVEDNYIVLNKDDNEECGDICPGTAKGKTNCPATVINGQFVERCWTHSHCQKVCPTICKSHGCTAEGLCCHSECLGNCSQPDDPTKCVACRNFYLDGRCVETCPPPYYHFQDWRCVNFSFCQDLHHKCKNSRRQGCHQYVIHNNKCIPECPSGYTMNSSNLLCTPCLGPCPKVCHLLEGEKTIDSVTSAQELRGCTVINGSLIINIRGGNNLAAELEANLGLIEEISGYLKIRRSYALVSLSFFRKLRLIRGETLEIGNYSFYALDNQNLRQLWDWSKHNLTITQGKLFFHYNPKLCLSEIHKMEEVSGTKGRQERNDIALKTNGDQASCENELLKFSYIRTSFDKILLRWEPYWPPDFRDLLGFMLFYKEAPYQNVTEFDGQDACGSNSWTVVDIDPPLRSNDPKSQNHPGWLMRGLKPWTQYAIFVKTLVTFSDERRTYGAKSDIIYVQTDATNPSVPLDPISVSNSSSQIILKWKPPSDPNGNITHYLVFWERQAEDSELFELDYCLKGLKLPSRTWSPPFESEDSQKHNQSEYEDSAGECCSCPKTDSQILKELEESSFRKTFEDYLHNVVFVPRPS
T1 sequence (P06213 763-956, chain 2 of 2): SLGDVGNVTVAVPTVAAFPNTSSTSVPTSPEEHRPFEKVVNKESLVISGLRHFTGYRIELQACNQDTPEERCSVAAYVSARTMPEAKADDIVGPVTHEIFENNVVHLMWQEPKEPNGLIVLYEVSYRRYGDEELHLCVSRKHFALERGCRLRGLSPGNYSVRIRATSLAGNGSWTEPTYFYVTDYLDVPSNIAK

B1: IR-13 (ssDNA)
DNA: GAGTGACCGTCTGCCTGTTATCCACTATGGCTTCTCATTCAAATAAGTGCGATCGATCAGCCACACCACCAGCC
Binder B1 has a Kd (Insulin receptor (IR) [1]) of 4.83 nM.

B2: IR-25 (ssDNA)
DNA: GAGTGACCGTCTGCCTGAGATCCGACTGTTTACTGTTTAACAGCCGGCTGATGGACCCAGCCACACCACCAGCC
In the case of B2, the Kd (Insulin receptor (IR) [2]) is reported as 13.3 nM.

B3: ERBB2-1 (ssDNA)
DNA: GAGTGACCGTCTGCCTGATGTTAGAGTTTGCCTGAGTGCCTCGTAAGGGCGTAACAACAGCCACACCACCAGCC
B3 was tested, and the Kd (ERBB2 (HER2) [3]) was 3.05 nM.

B4: IR-11 (ssDNA)
DNA: GAGTGACCGTCTGCCTGTAAGGTTTAAGCTTGGCCTAATGGTGCTATCAGGCTCAGCAGCCACACCACCAGCC
B4 gave a Kd (Insulin receptor (IR) [4]) of 5.48 nM.

B5: ERBB2-12 (ssDNA)
DNA: GAGTGACCGTCTGCCTGTCCTGGCATGTTCGATGGAGGCCTTTGATTACAGCCCAGACAGCCACACCACCAGCC
B5 was tested, and the Kd (ERBB2 (HER2) [5]) was 0.78 nM.

B6: IR-6 (ssDNA)
DNA: GAGTGACCGTCTGCCTGTGGGTACAGTCTTTAGCTTACACAGGCTCCTGAAGACGCACAGCCACACCACCAGCC
Work on B6 yielded a Kd (Insulin receptor (IR) [6]) of 4.6 nM and a Kd (Insulin receptor (IR) [7]) of 4.6 nM.

B7: ERBB2-19 (ssDNA)
DNA: GAGTGACCGTCTGCCTGATTAGATGAAAGCGCATTCCAACAACAGATAATCTGAGGGCAGCCACACCACCAGCC
In the case of B7, the Kd (ERBB2 (HER2) [8]) is reported as 15.8 nM.

B8: ERBB2-10 (ssDNA)
DNA: GAGTGACCGTCTGCCTGGTTAGACTGAACGCACTGAGGGCCGCAGCCTATCTGAAGGCAGCCACACCACCAGCC
B8 was tested, and the Kd (ERBB2 (HER2) [9]) was 3.7 nM.
